Patent EP3025729B1 (Glaxo Group Limited, dated 2018)
Changes are numbered by the printed parent chain. Each block holds one binder with its values, some of them ahead of it.

How the values were obtained:
[1] = target: T1, human serum amyloid P component (SAP) (human, UniProt P02743 20-223); experiment: ELISA, human SAP directly immobilised at 1 µg/mL
T1 construct: Purified from human material; In some assays it stood denatured (reduced SDS-PAGE); this is said under assay; also called human SAP; homo sapiens SAP
T1 sequence (P02743 20-223, form in doubt): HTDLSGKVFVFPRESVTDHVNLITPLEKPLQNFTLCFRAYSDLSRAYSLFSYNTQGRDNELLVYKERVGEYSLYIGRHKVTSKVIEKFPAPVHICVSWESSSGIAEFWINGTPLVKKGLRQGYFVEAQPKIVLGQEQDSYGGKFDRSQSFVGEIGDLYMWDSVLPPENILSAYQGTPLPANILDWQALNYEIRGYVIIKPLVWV

[2] = target: T2, cynomologus monkey SAP (cynomolgus monkey, UniProt A0A7N9DA00 20-223); experiment: Biacore, cyno SAP amine-coupled on C1 chip, culture supernatant
T2 construct: also called cyno SAP; cynomolgus monkey serum amyloid P component
T2 sequence (A0A7N9DA00 entry or part of it): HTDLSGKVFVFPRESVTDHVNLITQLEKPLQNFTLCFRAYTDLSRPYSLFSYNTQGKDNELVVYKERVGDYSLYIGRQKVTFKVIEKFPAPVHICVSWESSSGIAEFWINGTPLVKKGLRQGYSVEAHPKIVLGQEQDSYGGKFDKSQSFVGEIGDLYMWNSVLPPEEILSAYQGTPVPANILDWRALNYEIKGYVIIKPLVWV

fold loss of human SAP binding activity compared to SAP-K chimera [1]: ~2 fold
B1: SAP-K H1L0 humanised antibody (antibody, V domains shown)
VH: QVQLVQSGAEVKKPGSSVKVSCKASGYTFTSYWMHWVRQAPGQGLEWMGMIHPNSVNTNYNEKFKSRVTITADKSTSTAYMELSSLRSEDTAVYYCARRNDYYWYFDVWGQGTLVTVSS
VL: DIQMTQSPSSLSASVGDRVTITCKASQNVNSNVAWYQQKPGKAPKLLIYSASYRYSGVPSRFSGSGSGTDFTLTISSLQPEDFATYYCQQCNNYPFTFGQGTKLEIK

fold loss of human SAP binding activity compared to SAP-K chimera [1]: ~2 fold
B2: SAP-K H2L0 humanised antibody (antibody, V domains shown)
VH: B1 VH with M48I, V68A
VL: B1 VL

binding result [2]: no binding | fold loss of human SAP binding activity compared to SAP-K chimera [1]: ~2 fold
B3: SAP-K H0L0 humanised antibody (antibody, V domains shown)
VH: B1 VH with Y27G, T30S
VL: B1 VL
notes: also called SAP-K HOLO
